Results from patent publication US20050014687A1.

Molecular target: CG57008 protein, membrane bound (HAVcr-1, Hepatitis A virus cellular receptor 1) (human)
Assay: flow cytometry on polarized human CD4+ Th2 cells, 10 ug/ml; isotype control

Question: “PK16.3 isotype matched control mAb (antibody)” was tested. Which geometric mean of the fluorescence intensity did it give?
Answer: The geometric mean of the fluorescence intensity was 8.4.
